These results are taken from patent US20190233526A1.

This assay addresses human C-C motif chemokine receptor 4 (CCR4) on tumor cell lines (human) (UniProt P51679). Put plainly: cell-based or functional assay.
Chain of UniProt P51679 (P51679 whole entry): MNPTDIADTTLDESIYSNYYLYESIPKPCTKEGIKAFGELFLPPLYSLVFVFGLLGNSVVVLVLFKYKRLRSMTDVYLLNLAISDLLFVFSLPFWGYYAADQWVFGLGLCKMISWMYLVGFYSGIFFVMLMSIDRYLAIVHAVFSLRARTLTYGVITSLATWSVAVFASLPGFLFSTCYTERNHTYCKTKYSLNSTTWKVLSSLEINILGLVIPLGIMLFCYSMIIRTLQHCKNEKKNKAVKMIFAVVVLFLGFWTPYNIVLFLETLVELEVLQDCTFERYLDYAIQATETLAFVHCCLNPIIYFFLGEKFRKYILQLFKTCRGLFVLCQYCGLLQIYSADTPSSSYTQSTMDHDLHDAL

In turn, “CCR4 CAR (chimeric antigen receptor with mAb2-3 scFv, CD8 hinge and transmembrane domain, 4-1BB signaling domain and CD3 zeta signaling domain), expressed on transduced human CD3+ T cells” displayed a GM-CSF fold-induction, CAR T cells co-cultured with irradiated ATL55T cells for 24 hours of 5 fold; an IFN-gamma fold-induction, CAR T cells co-cultured with irradiated ATL55T cells for 24 hours of 2 fold; an IL-4 fold-induction, CAR T cells co-cultured with irradiated ATL55T cells for 24 hours of 9 fold; an IL-5 fold-induction, CAR T cells co-cultured with irradiated ATL55T cells for 24 hours of 4 fold. The substance further registered an IL-8 fold-induction, CAR T cells co-cultured with irradiated ATL55T cells for 24 hours of 4 fold; an IL-13 fold-induction, CAR T cells co-cultured with irradiated ATL55T cells for 24 hours of 3 fold; an MDC fold-induction, CAR T cells co-cultured with irradiated ATL55T cells for 24 hours of 2 fold; a TNF-alpha fold-induction, CAR T cells co-cultured with irradiated ATL55T cells for 24 hours of 8 fold. In addition, the TNF-beta fold-induction, CAR T cells co-cultured with irradiated ATL55T cells for 24 hours came to 5 fold; the [3H]thymidine incorporation of CAR T cells co-cultured with irradiated CCR4-bearing target cells is more than 3 fold; the increase of MIP-1α level on co-culture with target cells is 36%; the increase of MP-10 (so in the source) level on co-culture with target cells was 25%.
